How the values were obtained:
[1] = system: HeLa Kyoto; test: melting temperature (median over replicates), in situ; higher = more thermally stable
[2] = system: HeLa Kyoto; test: solubility change mitosis vs G1/S (difference of NP-40 vs SDS log2 ratios) (log2 ratio difference); higher = more soluble in mitosis
[3] = system: HeLa Kyoto; test: thermal stability score vs G1/S (z-score of summed log2 fold changes over temperatures); higher = more thermally stable than in G1/S
[4] = system: HeLa Kyoto; test: solubility in G1/S (NP-40 vs SDS abundance) (log2 ratio); higher = more soluble; conditions: cell cycle stage: G1/S
[5] = cell cycle stage: early G1 (4.5 h after nocodazole release)
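Wherever melting temperature (median over replicates), in situ is given: HeLa Kyoto cells synchronized by double thymidine or nocodazole block, proteins quantified by TMT10plex mass spectrometry, three independent biological replicates.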
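Wherever solubility change mitosis vs G1/S (difference of NP-40 vs SDS log2 ratios) is given: synchronized HeLa Kyoto cells (double thymidine block for G1/S, nocodazole release for mitosis), protein amounts in NP-40 versus SDS lysates quantified by mass spectrometry, three biological replicates.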
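Wherever solubility in G1/S (NP-40 vs SDS abundance) is given: HeLa Kyoto cells arrested at G1/S by double thymidine block, proteins quantified by TMT10plex mass spectrometry in mild NP-40 versus SDS extracts, three biological replicates.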
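Wherever thermal stability score vs G1/S (z-score of summed log2 fold changes over temperatures) is given: synchronized HeLa Kyoto cells, proteins quantified by TMT10plex mass spectrometry, three biological replicates, mitosis taken 0.5 h after nocodazole release, G1/S directly after double thymidine block.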

SIRT5, sequence (chain, as listed by the source): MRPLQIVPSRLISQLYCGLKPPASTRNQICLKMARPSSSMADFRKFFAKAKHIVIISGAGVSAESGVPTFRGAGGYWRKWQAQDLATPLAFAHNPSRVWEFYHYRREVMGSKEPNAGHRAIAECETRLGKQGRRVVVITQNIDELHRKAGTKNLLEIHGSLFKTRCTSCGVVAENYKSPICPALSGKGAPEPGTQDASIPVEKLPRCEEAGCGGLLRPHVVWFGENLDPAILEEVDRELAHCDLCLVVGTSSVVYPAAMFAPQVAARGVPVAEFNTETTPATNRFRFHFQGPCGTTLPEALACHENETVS

Row | Substance | melting temperature ([1]; cell cycle stage: G1/S) [°C] | melting temperature ([1]; cell cycle stage: mitosis) [°C] | solubility change mitosis (log2) [2] | thermal stability score [3, 5] | thermal stability score ([3]; cell cycle stage: mitosis) | solubility in G1/S (log2) [4]
1 | MAPSGLKAVVGEKILSGVIRSVKKDGEWKVLIMDHPSMRILSSCCKMSDILAEGITIVEDINKRREPIPSLEAIYLLSPTEKSVQALIKDFQGTPTFTYKAAHIFFTDTCPEPLFSELGRSRLAKVVKTLKEIHLAFLPYEAQVFSLDAPHSTYNLYCPFRAEERTRQLEVLAQQIATLCATLQEYPAIRYRKGPEDTAQLAHAVLAKLNAFKADTPSLGEGPEKTRSQLLIMDRAADPVSPLLHELTFQAMAYDLLDIEQDTYRYETTGLSEAREKAVLLDEDDDLWVELRHMHIADVSKKVTELLRTFCESKRLTTDKANIKDLSQILKKMPQYQKELNKYSTHLHLADDCMKHFKGSVEKLCSVEQDLAMGSDAEGEKIKDSMKLIVPVLLDAAVPAYDKIRVLLLYILLRNGVSEENLAKLIQHANVQAHSSLIRNLEQLGGTVTNPGGSGTSSRLEPRERMEPTYQLSRWTPVIKDVMEDAVEDRLDRNLWPFVSDPAPTASSQAAVSARFGHWHKNKAGIEARAGPRLIVYVMGGVAMSEMRAAYEVTRATEGKWEVLIGSSHILTPTRFLDDLKALDKKLEDIALP [STXBP2] | 49.3 | 49.2 | -0.19 | 0.25 | 1.22 | -0.0683
2 | MFPAAPSPRTPGTGSRRGPLAGLGPGSTPRTASRKGLPLGSAVSSPVLFSPVGRRSSLSSRGTPTRMFPHHSITESVNYDVKTFGSSLPVKVMEALTLAEVDDQLTINIDEGGWACLVCKEKLIIWKIALSPITKLSVCKELQLPPSDFHWSADLVALSYSSPSGEAHSTQAVAVMVATREGSIRYWPSLAGEDTYTEAFVDSGGDKTYSFLTAVQGGSFILSSSGSQLIRLIPESSGKIHQHILPQGQGMLSGIGRKVSSLFGILSPSSDLTLSSVLWDRERSSFYSLTSSNISKWELDDSSEKHAYSWDINRALKENITDAIWGSESNYEAIKEGVNIRYLDLKQNCDGLVILAAAWHSADNPCLIYYSLITIEDNGCQMSDAVTVEVTQYNPPFQSEDLILCQLTVPNFSNQTAYLYNESAVYVCSTGTGKFSLPQEKIVFNAQGDSVLGAGACGGVPIIFSRNSGLVSITSRENVSILAEDLEGSLASSVAGPNSESMIFETTTKNETIAQEDKIKLLKAAFLQYCRKDLGHAQMVVDELFSSHSDLDSDSELDRAVTQISVDLMDDYPASDPRWAESVPEEAPGFSNTSLIILHQLEDKMKAHSFLMDFIHQVGLFGRLGSFPVRGTPMATRLLLCEHAEKLSAAIVLKNHHSRLSDLVNTAILIALNKREYEIPSNLTPADVFFREVSQVDTICECLLEHEEQVLRDAPMDSIEWAEVVINVNNILKDMLQAASHYRQNRNSLYRREESLEKEPEYVPWTATSGPGGIRTVIIRQHEIVLKVAYPQADSNLRNIVTEQLVALIDCFLDGYVSQLKSVDKSSNRERYDNLEMEYLQKRSDLLSPLLSLGQYLWAASLAEKYCDFDILVQMCEQTDNQSRLQRYMTQFADQNFSDFLFRWYLEKGKRGKLLSQPISQHGQLANFLQAHEHLSWLHEINSQELEKAHATLLGLANMETRYFAKKKTLLGLSKLAALASDFSEDMLQEKIEEMAEQERFLLHQETLPEQLLAEKQLNLSAMPVLTAPQLIGLYICEENRRANEYDFKKALDLLEYIDEEEDININDLKLEILCKALQRDNWSSSDGKDDPIEVSKDSIFVKILQKLLKDGIQLSEYLPEVKDLLQADQLGSLKSNPYFEFVLKANYEYYVQGQI [NUP133] | 51.9 | 49.6 | 0.284 | -2.95 | -2.97 | -0.454
3 | MASILDEYENSLSRSAVLQPGCPSVGIPHSGYVNAQLEKEVPIFTKQRIDFTPSERITSLVVSSNQLCMSLGKDTLLRIDLGKANEPNHVELGRKDDAKVHKMFLDHTGSHLLIALSSTEVLYVNRNGQKVRPLARWKGQLVESVGWNKALGTESSTGPILVGTAQGHIFEAELSASEGGLFGPAPDLYFRPLYVLNEEGGPAPVCSLEAERGPDGRSFVIATTRQRLFQFIGRAAEGAEAQGFSGLFAAYTDHPPPFREFPSNLGYSELAFYTPKLRSAPRAFAWMMGDGVLYGALDCGRPDSLLSEERVWEYPEGVGPGASPPLAIVLTQFHFLLLLADRVEAVCTLTGQVVLRDHFLEKFGPLKHMVKDSSTGQLWAYTERAVFRYHVQREARDVWRTYLDMNRFDLAKEYCRERPDCLDTVLAREADFCFRQRRYLESARCYALTQSYFEEIALKFLEARQEEALAEFLQRKLASLKPAERTQATLLTTWLTELYLSRLGALQGDPEALTLYRETKECFRTFLSSPRHKEWLFASRASIHELLASHGDTEHMVYFAVIMQDYERVVAYHCQHEAYEEALAVLARHRDPQLFYKFSPILIRHIPRQLVDAWIEMGSRLDARQLIPALVNYSQGGEVQQVSQAIRYMEFCVNVLGETEQAIHNYLLSLYARGRPDSLLAYLEQAGASPHRVHYDLKYALRLCAEHGHHRACVHVYKVLELYEEAVDLALQVDVDLAKQCADLPEEDEELRKKLWLKIARHVVQEEEDVQTAMACLASCPLLKIEDVLPFFPDFVTIDHFKEAICSSLKAYNHHIQELQREMEEATASAQRIRRDLQELRGRYGTVEPQDKCATCDFPLLNRPFYLFLCGHMFHADCLLQAVRPGLPAYKQARLEELQRKLGAAPPPAKGSARAKEAEGGAATAGPSREQLKADLDELVAAECVYCGELMIRSIDRPFIDPQRYEEEQLSWL [VPS18] | 50.1 | 49.5 | -0.0584 | 0.54 | 1.02 | -0.115
4 | MAATALLEAGLARVLFYPTLLYTLFRGKVPGRAHRDWYHRIDPTVLLGALPLRSLTRQLVQDENVRGVITMNEEYETRFLCNSSQEWKRLGVEQLRLSTVDMTGIPTLDNLQKGVQFALKYQSLGQCVYVHCKAGRSRSATMVAAYLIQVHKWSPEEAVRAIAKIRSYIHIRPGQLDVLKEFHKQITARATKDGTFVISKT [PTPMT1] | 51.8 | 51.2 | -0.0676 | -0.395 | -0.764 | -0.268
5 | SIRT5 | 50.9 | 50.9 | -0.233 | -0.174 | 0.987 | 0.419
6 | MAGIIKKQILKHLSRFTKNLSPDKINLSTLKGEGELKNLELDEEVLQNMLDLPTWLAINKVFCNKASIRIPWTKLKTHPICLSLDKVIMEMSTCEEPRSPNGPSPIATASGQSEYGFAEKVVEGISVSVNSIVIRIGAKAFNASFELSQLRIYSVNAHWEHGDLRFTRIQDPQRGEVLTFKEINWQMIRIEADATQSSHLEIMCAPVRLITNQSKIRVTLKRRLKDCNVIATKLVLILDDLLWVLTDSQLKAMVQYAKSLSEAIEKSTEQRKSMAPEPTQSSTVVASAQQVKTTQTSNAPDVNDAIVKLFNDFDVKETSHHLVISHLDLHICDDIHAKEKESNRRITGGAMQLSFTQLTIDYYPYHKAGDSCNHWMYFSDATKTKNGWANELLHEFECNVEMLKQAVKDHNVGSPPKSPTHASPQHTQTEKDYPLKGTCRTPSVLSQQSKAKLMSSSVVVRLADFNIYQVSTAEQCRSSPKSMICCNKKSLYLPQEMSAVYIEFTEYYYPDGKDFPIPSPNLYSQLNALQFTVDERSILWLNQFLLDLKQSLNQFMAVYKLNDNSKSDEHVDVRVDGLMLKFVIPSEVKSECHQDQPRAISIQSSEMIATNTRHCPNCRHSDLEALFQDFKDCDFFSKTYTSFPKSCDNFNLLHPIFQRHAHEQDTKMHEIYKGNITPQLNKNTLKTSAATDVWAVYFSQFWIDYEGMKSGKGRPISFVDSFPLSIWICQPTRYAESQKEPQTCNQVSLNTSQSESSDLAGRLKRKKLLKEYYSTESEPLTNGGQKPSSSDTFFRFSPSSSEADIHLLVHVHKHVSMQINHYQYLLLLFLHESLILLSENLRKDVEAVTGSPASQTSICIGILLRSAELALLLHPVDQANTLKSPVSESVSPVVPDYLPTENGDFLSSKRKQISRDINRIRSVTVNHMSDNRSMSVDLSHIPLKDPLLFKSASDTNLQKGISFMDYLSDKHLGKISEDESSGLVYKSGSGEIGSETSDKKDSFYTDSSSILNYREDSNILSFDSDGNQNILSSTLTSKGNETIESIFKAEDLLPEAASLSENLDISKEETPPVRTLKSQSSLSGKPKERCPPNLAPLCVSYKNMKRSSSQMSLDTISLDSMILEEQLLESDGSDSHMFLEKGNKKNSTTNYRGTAESVNAGANLQNYGETSPDAISTNSEGAQENHDDLMSVVVFKITGVNGEIDIRGEDTEICLQVNQVTPDQLGNISLRHYLCNRPVGSDQKAVIHSKSSPEISLRFESGPGAVIHSLLAEKNGFLQCHIENFSTEFLTSSLMNIQHFLEDETVATVMPMKIQVSNTKINLKDDSPRSSTVSLEPAPVTVHIDHLVVERSDDGSFHIRDSHMLNTGNDLKENVKSDSVLLTSGKYDLKKQRSVTQATQTSPGVPWPSQSANFPEFSFDFTREQLMEENESLKQELAKAKMALAEAHLEKDALLHHIKKMTVE [UHRF1BP1L] | 53.9 | 53.8 | -0.181 | -1.27 | -1.34 | -0.0678
7 | MAESIIIRVQSPDGVKRITATKRETAATFLKKVAKEFGFQNNGFSVYINRNKTGEITASSNKSLNLLKIKHGDLLFLFPSSLAGPSSEMETSVPPGFKVFGAPNVVEDEIDQYLSKQDGKIYRSRDPQLCRHGPLGKCVHCVPLEPFDEDYLNHLEPPVKHMSFHAYIRKLTGGADKGKFVALENISCKIKSGCEGHLPWPNGICTKCQPSAITLNRQKYRHVDNIMFENHTVADRFLDFWRKTGNQHFGYLYGRYTEHKDIPLGIRAEVAAIYEPPQIGTQNSLELLEDPKAEVVDEIAAKLGLRKVGWIFTDLVSEDTRKGTVRYSRNKDTYFLSSEECITAGDFQNKHPNMCRLSPDGHFGSKFVTAVATGGPDNQVHFEGYQVSNQCMALVRDECLLPCKDAPELGYAKESSSEQYVPDVFYKDVDKFGNEITQLARPLPVEYLIIDITTTFPKDPVYTFSISQNPFPIENRDVLGETQDFHSLATYLSQNTSSVFLDTISDFHLLLFLVTNEVMPLQDSISLLLEAVRTRNEELAQTWKRSEQWATIEQLCSTVGGQLPGLHEYGAVGGSTHTATAAMWACQHCTFMNQPGTGHCEMCSLPRT [NPLOC4] | 51.8 | 52 | -0.119 | 0.478 | -0.273 | -0.00908
8 | MAAVVALSLRRRLPATTLGGACLQASRGAQTAAATAPRIKKFAIYRWDPDKAGDKPHMQTYEVDLNKCGPMVLDALIKIKNEVDSTLTFRRSCREGICGSCAMNINGGNTLACTRRIDTNLNKVSKIYPLPHMYVIKDLVPDLSNFYAQYKSIEPYLKKKDESQEGKQQYLQSIEEREKLDGLYECILCACCSTSCPSYWWNGDKYLGPAVLMQAYRWMIDSRDDFTEERLAKLQDPFSLYRCHTIMNCTRTCPKGLNPGKAIAEIKKMMATYKEKKASV [SDHB] | 54.7 | 56.3 | -0.00338 | -1.86 | -2.8 | 0.659
9 | MAVFRSGLLVLTTPLASLAPRLASILTSAARLVNHTLYVHLQPGMSLEGPAQPQSSPVQATFEVLDFITHLYAGADVHRHLDVRILLTNIRTKSTFLPPLPTSVQNLAHPPEVVLTDFQTLDGSQYNPVKQQLVRYATSCYSCCPRLASVLLYSDYGIGEVPVEPLDVPLPSTIRPASPVAGSPKQPVRGYYRGAVGGTFDRLHNAHKVLLSVACILAQEQLVVGVADKDLLKSKLLPELLQPYTERVEHLSEFLVDIKPSLTFDVIPLLDPYGPAGSDPSLEFLVVSEETYRGGMAINRFRLENDLEELALYQIQLLKDLRHTENEEDKVSSSSFRQRMLGNLLRPPYERPELPTCLYVIGLTGISGSGKSSIAQRLKGLGAFVIDSDHLGHRAYAPGGPAYQPVVEAFGTDILHKDGIINRKVLGSRVFGNKKQLKILTDIMWPIIAKLAREEMDRAVAEGKRVCVIDAAVLLEAGWQNLVHEVWTAVIPETEAVRRIVERDGLSEAAAQSRLQSQMSGQQLVEQSHVVLSTLWEPHITQRQVEKAWALLQKRIPKTHQALD [COASY] | 48.1 | 48.8 | -0.14 | 2.77 | 4.34 | 0.236

Source: the supplement of paper PMC5998384
